Experiments:
[1] = biological target: HisEhC2B121 (E. histolytica); experiment: ITC
[2] = biological target: T1, MBPEhC2BHis (E. histolytica, UniProt C4M344 1-208); experiment: ITC; conditions: both partners purified
T1 construct: also called EhC2B full-length; not shown: MBP, N-terminal, kept; His-tag, C-terminal, kept
T1 sequence: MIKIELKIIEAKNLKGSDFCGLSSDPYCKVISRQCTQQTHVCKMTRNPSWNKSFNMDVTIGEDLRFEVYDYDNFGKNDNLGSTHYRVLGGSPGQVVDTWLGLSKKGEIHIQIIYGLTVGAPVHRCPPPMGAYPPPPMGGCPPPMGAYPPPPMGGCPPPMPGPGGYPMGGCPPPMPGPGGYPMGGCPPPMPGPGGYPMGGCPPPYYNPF

B1: GSTEhRab21 (enzyme)
chain: MENEFKVVLLGEGKVGKTSMILRYTQNFFTPEEGPRTTQASYVSKTLNIDKNDYIINIWDTAGQEKYQALTPIYYRDSQGAILVYDITEPRSFQRVQTEVDNIRDMLGDSCCIVIVGNKMDLVQQRKISKEEADKYAESVKAIHYLCSCATGDGISDVFEGLTKQMVDKRKSLGDDELFDRKKSTLVFQDDKNNTRQAKSDCC
notes: also called GppNHp-GSTEhRab21; GDP-GSTEhRab21; source: recombinant, purified
- Ka [1]: 9.6e+06 M⁻¹
- dH [1]: -15.6 kcal/mol
- stoichiometry N [1]: 1
- Ka [2]: 1.24e+07 M⁻¹
- dH [2]: -9.23 kcal/mol
- stoichiometry N [2]: 1
